Test results from US20250011456A1, “ANTIBODIES AGAINST CD14 AND USES THEREOF” (Villanelle Life Science Inc, priority 2023, published 2025).
Values joined by “and” are separate entries in the source; they are usually repeats but may differ in a detail not shown here. Identical values can stand only once.

Columns and labels:
[1] = tested on: CD14 positive recurrent bladder cancer patient-derived xenograft (PDX); test: Amount of anti-CD14-IgG1 (5-40 mg/kg) for tumor treatment in PDX mice (tumor length, width, volume, tumor weight; Example 7); type: in vivo; settings: for Tumor Length / Tumor Volume / Tumor Width: per mouse 1-5; for Tumor weight after 28 days: individual mice 1-5
Source text: (§1) After removing the primary tumor tissue from the patient, the tissue was temporarily placed in a complete culture medium containing RPMI1640 (Gibco Roswell Park Memorial Institute 1640 Media)+PS (penicillin and streptomycin)+10% FBS (Fetal bovine serum). The tissue was then transported to a sterile operating room within an SPF-grade (Specific Pathogen Free) animal facility. The tumor tissue was cut to an appropriate size (5 millimeters (mm) in diameter). Severely immunodeficient NSG (NOD scid gamma mouse) mice were anesthetized using an isoflurane respirator. The tumor was transplanted subcutaneously into the right rib area through surgery. When the tumor volume reached 1 cm^3, it was passaged following the same procedure, and after expanding for three generations, the tumor became stable for use in formal experiments. During the experiment, passaging and expansion were performed as needed. When the tumor volume reached 100 mm^3, the mice were divided into groups according to the experimental requirements and treated with drugs.
To evaluate concentrations for the anti-CD14-IgG1 antibody, PDX mice were treated with five different concentrations of the IgG1 antibody over a period of 28 days. For these experiments, drug administration on the PDX mice was performed intravenously on alternating 4 days and 3 days.
The five different concentrations of the anti-CD14-IgG1 antibody tested include 5 mg/kg, 10 mg/kg, 15 mg/kg, 25 mg/kg, and 40 mg/kg. A control regimen was utilized as a comparative example. […] The non-specific IgG1 has no binding affinity to antigen. […] Tumor weight and tumor volume were calculated as described above.

[2] = tested on: CD14 positive recurrent bladder cancer patient-derived xenograft (PDX); test: Anti-CD14 IgG1/IgG4 with or without cisplatin, tumor treatment in PDX mice (tumor length, width, volume, tumor weight; Example 6); type: in vivo; settings: for Tumor Length / Tumor Width: IgG1 5 mg/kg i.v. (Ex. 1), PDX mice 1-6
Source text: as §1
The IgG4 tested is the original version of Atibuclimab.
Drug administration on the PDX mice was performed intravenously.

[3] = Day 4, IgG1 (10 mg/kg), 10 mg/kg
[4] = Day 11, IgG1 (5 mg/kg), 5 mg/kg
[5] = Day 14, IgG1 (5 mg/kg), 5 mg/kg
[6] = Day 18, IgG1 (5 mg/kg), 5 mg/kg
[7] = Day 21, IgG1 (5 mg/kg), 5 mg/kg
[8] = Day 25, IgG1 (5 mg/kg), 5 mg/kg
[9] = Day 28, IgG1 (5 mg/kg), 5 mg/kg

B1: D6DD3D001: mouse-derived anti-CD14 IgG1 antibody; VH SEQ ID NO: 1, VL SEQ ID NO: 3, heavy chain SEQ ID NO: 2, light chain SEQ ID NO: 4 (antibody)
heavy: DVQLQQSGPGLVKPSQSLSLTCTVTGYSITSDSAWNWIRQFPGNRLEWMGYISYSGSTSYNPSLKSRISITRDTSKNQFFLQLNSVTTEDTATYYCVRGLRFAYWGQGTLVTVSSPSVFLFPPKPKDTLMISRTPEVTCVVVDVSHEDPEVKFNWYVDGVEVHNAKTKPREEQYNSTYRVVSVLTVLHQDWLNGKEYKCKVSNKALPAPIEKTISKAKGQPREPQVYTLPPSREEMTKNQVSLTCLVKGFYPSDIAVEWESNGQPENNYKTTPPVLDSDGSFFLYSKLTVDKSRWQQGNVFSCSVMHEALHNHYTQKSLSLSPGK
light: DIVLTQSPASLAVSLGQRATISCRASESVDSYVNSFLHWYQQKPGQPPKLLIYRASNLQSGIPARFSGSGSRTDFTLTINPVEADDVATYYCQQSNEDPYTFGGGTKLEIKRTVAAPSVFIFPPSDEQLKSGTASVVCLLNNFYPREAKVQWKVDNALQSGNSQESVTEQDSKDSTYSLSSTLTLSKADYEKHKVYACEVTHQGLSSPVTKSFNRGEC
Tumor Length ([1]; Day 0, IgG1 (5 mg/kg), 5 mg/kg): 4.41 mm and 4.54 mm and 4.71 mm and 5.12 mm and 4.93 mm
Tumor Volume ([1]; Day 0, IgG1 (5 mg/kg), 5 mg/kg): 20.01 mm^3 and 19.41 mm^3 and 19.14 mm^3 and 19.44 mm^3 and 19.33 mm^3
Tumor Volume ([1]; Day 0, IgG1 (10 mg/kg), 10 mg/kg): 59.69 mm^3 and 68.55 mm^3 and 77.15 mm^3 and 79.05 mm^3 and 79.08 mm^3
Tumor Length ([1]; Day 4, IgG1 (5 mg/kg), 5 mg/kg): 5.58 mm and 6.11 mm and 6.53 mm and 5.89 mm and 6.64 mm
Tumor Volume ([1]; Day 4, IgG1 (5 mg/kg), 5 mg/kg): 79.57 mm^3 and 87.80 mm^3 and 92.05 mm^3 and 94.26 mm^3 and 105.50 mm^3
Tumor Width ([1]; Day 4, IgG1 (5 mg/kg), 5 mg/kg): 5.22 mm and 5.24 mm and 5.19 mm and 5.53 mm and 5.51 mm
Tumor Length [1, 3]: 5.95 mm and 6.55 mm
Tumor Volume [1, 3]: 81.63 mm^3 and 82.98 mm^3 and 85.32 mm^3 and 88.96 mm^3 and 108.37 mm^3
Tumor Width [1, 3]: 5.12 mm
Tumor Volume ([1]; Day 4, IgG1 (15 mg/kg), 15 mg/kg): 76.19 mm^3 and 77.75 mm^3 and 81.95 mm^3 and 87.59 mm^3 and 90.56 mm^3
Tumor Length ([1]; Day 7, IgG1 (5 mg/kg), 5 mg/kg): 7.84 mm and 6.11 mm and 6.37 mm and 6.61 mm and 6.56 mm
Tumor Volume ([1]; Day 7, IgG1 (5 mg/kg), 5 mg/kg): 103.81 mm^3 and 104.99 mm^3 and 109.45 mm^3 and 121.23 mm^3 and 132.82 mm^3
Tumor Width ([1]; Day 7, IgG1 (5 mg/kg), 5 mg/kg): 5.03 mm and 5.73 mm (2×) and 5.92 mm and 6.22 mm
Tumor Volume ([1]; Day 7, IgG1 (10 mg/kg), 10 mg/kg): 112.99 mm^3 and 113.39 mm^3 and 121.55 mm^3 and 122.33 mm^3 and 133.44 mm^3
Tumor Volume ([1]; Day 7, IgG1 (15 mg/kg), 15 mg/kg): 99.31 mm^3 and 113.51 mm^3 and 118.44 mm^3 and 127.47 mm^3 and 152.88 mm^3
Tumor Length [1, 4]: 6.48 mm and 6.63 mm and 6.74 mm and 6.44 mm and 7.52 mm
Tumor Volume [1, 4]: 92.40 mm^3 and 103.06 mm^3 and 128.68 mm^3 and 130.81 mm^3 and 158.69 mm^3
Tumor Width [1, 4]: 5.22 mm and 5.45 mm and 6.04 mm and 6.23 mm and 6.35 mm
Tumor Volume ([1]; Day 11, IgG1 (10 mg/kg), 10 mg/kg): 100.68 mm^3 and 105.14 mm^3 and 112.60 mm^3 and 143.90 mm^3 and 170.28 mm^3
Tumor Length [1, 5]: 7.14 mm and 6.88 mm and 7.56 mm and 7.02 mm and 8.46 mm
Tumor Volume [1, 5]: 128.31 mm^3 and 135.30 mm^3 and 170.26 mm^3 and 171.88 mm^3 and 184.76 mm^3
Tumor Width [1, 5]: 5.86 mm and 6.13 mm and 6.56 mm and 6.84 mm and 6.46 mm
Tumor Volume ([1]; Day 14, IgG1 (10 mg/kg), 10 mg/kg): 109.71 mm^3 and 110.99 mm^3 and 134.85 mm^3 and 153.36 mm^3 and 165.63 mm^3
Tumor Length [1, 6]: 7.91 mm and 7.24 mm and 8.45 mm and 8.16 mm and 8.08 mm
Tumor Volume [1, 6]: 151.02 mm^3 and 169.58 mm^3 and 185.12 mm^3 and 218.31 mm^3 and 231.55 mm^3
Tumor Width [1, 6]: 6.04 mm and 6.69 mm and 6.47 mm and 7.15 mm and 7.4 mm
Tumor Volume ([1]; Day 18, IgG1 (10 mg/kg), 10 mg/kg): 132.18 mm^3 and 141.82 mm^3 and 163.82 mm^3 and 192.29 mm^3 and 204.50 mm^3
Tumor Length [1, 7]: 8.92 mm and 8.5 mm and 8.53 mm and 8.19 mm and 8.49 mm
Tumor Volume [1, 7]: 191.80 mm^3 and 234.46 mm^3 and 261.25 mm^3 and 271.57 mm^3 and 289.36 mm^3
Tumor Width [1, 7]: 6.41 mm and 7.26 mm and 7.65 mm and 7.96 mm and 8.07 mm
Tumor Volume ([1]; Day 21, IgG1 (10 mg/kg), 10 mg/kg): 218.53 mm^3 and 193.54 mm^3 and 221.69 mm^3 and 223.66 mm^3 and 268.23 mm^3
Tumor Length [1, 8]: 8.73 mm and 9.67 mm and 9.91 mm and 9.97 mm and 9.69 mm
Tumor Volume [1, 8]: 234.87 mm^3 and 334.49 mm^3 and 386.25 mm^3 and 465.95 mm^3 and 468.33 mm^3
Tumor Width [1, 8]: 7.17 mm and 8.13 mm and 8.63 mm and 9.45 mm and 9.61 mm
Tumor Volume ([1]; Day 25, IgG1 (10 mg/kg), 10 mg/kg): 227.79 mm^3 and 282.78 mm^3 and 300.56 mm^3 and 329.18 mm^3 and 336.90 mm^3
Tumor Length [1, 9]: 9.76 mm and 9.79 mm and 10.39 mm and 11.02 mm and 10.87 mm
Tumor Volume [1, 9]: 333.47 mm^3 and 459.47 mm^3 and 555.77 mm^3 and 603.55 mm^3 and 637.97 mm^3
Tumor Width [1, 9]: 8.08 mm and 9.47 mm and 10.11 mm and 10.23 mm and 10.59 mm
Tumor Volume ([1]; Day 28, IgG1 (10 mg/kg), 10 mg/kg): 231.00 mm^3 and 313.49 mm^3 and 338.93 mm^3 and 402.03 mm^3 and 419.55 mm^3
Tumor weight after 28 days ([1]; IgG1 5 mg/kg, 5 mg/kg): 0.486 grams and 0.535 grams and 0.567 grams and 0.502 grams and 0.625 grams
Tumor weight after 28 days ([1]; IgG1 10 mg/kg, 10 mg/kg): 0.341 grams and 0.302 grams and 0.267 grams and 0.285 grams and 0.386 grams
Tumor weight after 28 days ([1]; IgG1 15 mg/kg, 15 mg/kg): 0.215 grams and 0.202 grams and 0.246 grams and 0.253 grams and 0.291 grams
Tumor weight after 28 days ([1]; IgG1 25 mg/kg, 25 mg/kg): 0.158 grams and 0.184 grams and 0.191 grams and 0.204 grams and 0.211 grams
Tumor weight after 28 days ([1]; IgG1 40 mg/kg, 40 mg/kg): 0.128 grams and 0.195 grams and 0.199 grams and 0.205 grams and 0.206 grams
tumor inhibition level versus dosage ([1]; anti-CD14-IgG1 5 mg/kg to 15 mg/kg, 28 days): significantly increase with the dosage
tumor inhibition rate versus dosage ([1]; anti-CD14-IgG1 15 mg/kg to 40 mg/kg, 28 days): tumor inhibition rate remaining the same across the three groups
Tumor Length ([2]; Day 0, 5 mg/kg): 5.49 mm and 6.47 mm and 6.35 mm and 7.09 mm and 6.67 mm and 6.45 mm
Tumor Width ([2]; Day 0, 5 mg/kg): 4.68 mm and 5.9 mm and 5.17 mm and 4.77 mm and 5.25 mm and 5.24 mm
Tumor Length ([2]; Day 4, 5 mg/kg): 7.07 mm and 6.57 mm and 5.62 mm and 7.08 mm and 6.02 mm and 6.24 mm
Tumor Width ([2]; Day 4, 5 mg/kg): 5.98 mm and 5.95 mm and 5.01 mm and 5.53 mm and 5.58 mm and 6.18 mm
Tumor Length ([2]; Day 7, 5 mg/kg): 7.09 mm and 6.9 mm and 6.93 mm and 6.25 mm and 6.83 mm and 8.42 mm
Tumor Width ([2]; Day 7, 5 mg/kg): 5.61 mm and 6.26 mm and 6.41 mm and 5.39 mm and 6.72 mm and 6.39 mm
Tumor Length ([2]; Day 11, 5 mg/kg): 7.21 mm and 8.38 mm and 8.42 mm and 8.88 mm and 7.93 mm and 6.52 mm
Tumor Width ([2]; Day 11, 5 mg/kg): 5.85 mm and 6.91 mm and 7.5 mm and 7.03 mm and 6.5 mm and 5.39 mm
Tumor Length ([2]; Day 14, 5 mg/kg): 8.71 mm and 8.88 mm and 8.53 mm and 8.28 mm and 9.34 mm and 8.3 mm
Tumor Width ([2]; Day 14, 5 mg/kg): 7.05 mm and 6.51 mm and 7.95 mm and 7.99 mm and 8.34 mm and 8.05 mm
Tumor Length ([2]; Day 18, 5 mg/kg): 8.97 mm and 8.58 mm and 10.62 mm and 9.13 mm and 10.97 mm and 10.6 mm
Tumor Width ([2]; Day 18, 5 mg/kg): 8.41 mm and 8.21 mm and 9.09 mm and 8.09 mm and 8.03 mm and 8.83 mm
Tumor Length ([2]; Day 21, 5 mg/kg): 10.32 mm and 9.85 mm and 10.71 mm and 10.99 mm and 9.04 mm and 9.86 mm
Tumor Width ([2]; Day 21, 5 mg/kg): 9.94 mm and 9.85 mm and 8.59 mm and 8.23 mm and 8.97 mm and 9.35 mm
Tumor Length ([2]; Day 25, 5 mg/kg): 10.94 mm and 11.6 mm and 9.44 mm and 10.91 mm and 11.63 mm and 11.67 mm
Tumor Width ([2]; Day 25, 5 mg/kg): 10.71 mm and 8.34 mm and 9.23 mm and 9.83 mm and 10.03 mm and 9.39 mm
Tumor Length ([2]; Day 28, 5 mg/kg): 11.18 mm and 12.43 mm and 12.8 mm and 10.15 mm and 10.49 mm
Tumor Width ([2]; Day 28, 5 mg/kg): 9.72 mm and 10.02 mm and 9.93 mm and 10.84 mm and 9.98 mm and 9.95 mm
Tumor weight after 28 days ([2]; IgG1 (5 mg/kg), Ex. 1, per mouse 1-6, 5 mg/kg): 0.645 grams and 0.585 grams and 0.501 grams and 0.618 grams and 0.641 grams and 0.555 grams
tumor suppression rate ([2]; single anti-CD14-IgG1 5 mg/kg (Ex. 1), after 28 days, compared to the control group): about 50%
